These are literature values, as cited in article PMC7768499.

Among the targets are IgA (Homo sapiens) (UniProt P01876); IgA2 (Homo sapiens) (UniProt P01877); IgA1 (Homo sapiens) (UniProt P01876).

Sequence of FcαRI (P24071 22-287): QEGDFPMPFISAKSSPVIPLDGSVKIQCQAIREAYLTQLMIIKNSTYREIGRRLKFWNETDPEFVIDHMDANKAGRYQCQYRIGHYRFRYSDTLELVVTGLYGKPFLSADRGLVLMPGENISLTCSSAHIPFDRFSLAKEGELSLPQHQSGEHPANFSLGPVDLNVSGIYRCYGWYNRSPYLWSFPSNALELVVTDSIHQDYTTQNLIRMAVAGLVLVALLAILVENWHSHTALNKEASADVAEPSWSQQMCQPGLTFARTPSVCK
Sequence of IgA (Homo sapiens) (P01876 whole entry): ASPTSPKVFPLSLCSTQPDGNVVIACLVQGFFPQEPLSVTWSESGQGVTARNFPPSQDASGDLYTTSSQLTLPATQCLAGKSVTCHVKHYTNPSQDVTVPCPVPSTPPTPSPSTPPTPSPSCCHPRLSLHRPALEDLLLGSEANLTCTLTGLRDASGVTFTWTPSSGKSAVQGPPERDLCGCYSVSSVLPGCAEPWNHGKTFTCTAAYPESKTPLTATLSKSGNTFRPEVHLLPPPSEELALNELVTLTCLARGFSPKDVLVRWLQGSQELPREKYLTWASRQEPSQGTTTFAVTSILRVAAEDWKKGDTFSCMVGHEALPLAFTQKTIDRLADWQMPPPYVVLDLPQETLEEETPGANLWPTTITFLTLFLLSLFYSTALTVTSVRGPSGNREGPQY
Sequence of IgA1 (Homo sapiens) (P01876 whole entry): as above
Sequence of IgA2 (Homo sapiens) (P01877 whole entry): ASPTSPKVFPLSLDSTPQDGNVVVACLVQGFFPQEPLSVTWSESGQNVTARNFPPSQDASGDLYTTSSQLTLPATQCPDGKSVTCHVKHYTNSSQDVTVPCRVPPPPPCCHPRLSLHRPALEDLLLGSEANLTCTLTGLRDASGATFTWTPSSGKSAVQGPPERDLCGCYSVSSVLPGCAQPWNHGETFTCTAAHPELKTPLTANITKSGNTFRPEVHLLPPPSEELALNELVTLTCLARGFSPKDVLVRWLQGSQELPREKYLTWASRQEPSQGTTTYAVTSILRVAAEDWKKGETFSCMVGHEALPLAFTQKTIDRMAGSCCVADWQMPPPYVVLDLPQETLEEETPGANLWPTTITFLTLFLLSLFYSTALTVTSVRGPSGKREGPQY

In general, Kd refers to a measure of binding affinity in units of concentration. On to FcαRI (from UniProt P24071), for which the Kd in the data set with IgA (Homo sapiens) is 20 nM; in the data set with IgA2 (Homo sapiens) it was 20 nM; with IgA1 (Homo sapiens) it was 155 nM.
